According to patent publication US12129308 (Merck KGaA, dated 2024):
Positions count from the first letter of the chain named.

B1: C010100101 (VHH)
VHH: EVQLVESGGGLVQPGGSLRLSCAASGFTLAYYSIGWFRQAPGKEREGVSCISSGIDGSTYYADSVKGRFTISRDNAKNTMYLQMNNLKPEDTGVYYCAADPSHYYSEYDCGYYGMDYWGKGTLVTVSS
B2: C010100691 (bispecific antibody)
chain: EVQLVESGGGLVQPGGSLRLSCAASGSIFSINAMGWYRQAPGKQRELVAAISSGGSTYYADSVKGRFTISRDNSKNTVYLQMNSLRPEDTAVYYCNAAVDASRGLPYELYYYWGQGTLVTVSSGGGGSGGGGSGGGGSGGGGSGGGGSGGGGSGGGGSEVQLVESGGGLVQPGGSLRLSCAASGRTFSSYTMGWFRQAPGKEREFVAAISWSGGRTYYADSVKGRFTISRDNSKNTVYLQMNSLRPEDTAVYYCAAYRRRRASSNRGLWDYWGQGTLVTVSS
B3: C010100692 (bispecific antibody)
chain: EVQLVESGGGLVQPGGSLRLSCAASGFAFSAAYMSWVRQAPGKGLEWVSSISDDGSKTYYADSVKGRFTISRDNSKNTVYLQMNSLRPEDTAVYYCNTGYGATTTRPGRYWGQGTLVTVSSGGGGSGGGGSGGGGSGGGGSGGGGSGGGGSGGGGSEVQLVESGGGLVQPGGSLRLSCAASGRTFSSYTMGWFRQAPGKEREFVAAISWSGGRTYYADSVKGRFTISRDNSKNTVYLQMNSLRPEDTAVYYCAAYRRRRASSNRGLWDYWGQGTLVTVSS
B4: C010100687 (bispecific antibody)
chain: EVQLVESGGGLVQPGGSLRLSCAASGFTLAYYSIGWFRQAPGKEREGVSCISSGIDGSTYYADSVKGRFTISRDNAKNTMYLQMNNLKPEDTGVYYCAADPSHYYSEYDCGYYGMDYWGKGTLVTVSSGGGGSGGGGSGGGGSGGGGSGGGGSGGGGSGGGGSEVQLVESGGGLVQPGGSLRLSCAASGSTFIINVVRWYRRAPGKQRELVATISSGGNANYVDSVRGRFTISRDNSKNTVYLQMNSLRPEDTAVYYCNVPTTHYGGVYYGPYWGQGTLVTVSS
B5: C010100080 (bispecific antibody)
chain: EVQLVESGGGLVQPGGSLRLSCAASGRTFSSYAMGWFRQAPGKEREFVAAISWSGGSTYYADSVKGRFTISRDNSKNTVYLQMNSLRPEDTAVYYCTAALAVYGPNRYRYGPVGEYNYWGQGTLVTVSSGGGGSGGGGSGGGGSGGGGSGGGGSGGGGSGGGGSEVQLVESGGGSVQAGGSLRLSCAASGSTFSRYSMNWYRQAPGKQREFVAGISVGRITNYAVSVRGRFTISRDNAEGTGYLQMNSLKPEDTAVYYCNAGGLQGYWGLGTLVTVSSGAADYKDHDGDYKDHDIDYKDDDDKGAAHHHHHH
B6: C010100689 (bispecific antibody)
chain: EVQLVESGGGLVQPGGSLRLSCAASGFAFSAAYMSWVRQAPGKGLEWVSSISDDGSKTYYADSVKGRFTISRDNSKNTVYLQMNSLRPEDTAVYYCNTGYGATTTRPGRYWGQGTLVTVSSGGGGSGGGGSGGGGSGGGGSGGGGSGGGGSGGGGSEVQLVESGGGLVQPGGSLRLSCAASGSTFIINVVRWYRRAPGKQRELVATISSGGNANYVDSVRGRFTISRDNSKNTVYLQMNSLRPEDTAVYYCNVPTTHYGGVYYGPYWGQGTLVTVSS
B7: C010100696 (bispecific antibody)
chain: EVQLVESGGGLVQPGGSLRLSCAASGRTFSSYAMGWFRQAPGKEREFVAAISWSGGSTYYADSVKGRFTISRDNSKNTVYLQMNSLRPEDTAVYYCTAALAVYGPSRYRYGPVGEYQYWGQGTLVTVSSGGGGSGGGGSGGGGSGGGGSGGGGSGGGGSGGGGSEVQLVESGGGSVQPGGSLRLSCAASGSTFSRYSMNWYRQAPGKQREFVAGISVGRITNYAVSVRGRFTISRDNSEGTGYLQMNSLRPEDTAVYYCNAGGLQGYWGLGTLVTVSSGGGGSGGGGSGGGGSGGGGSGGGGSGGGGSGGGGSEVQLVESGGGLVQPGGSLRLSCAASGRTFSSYTMGWFRQAPGKEREFVAAISWSGGRTYYADSVKGRFTISRDNSKNTVYLQMNSLRPEDTAVYYCAAYRRRRASSNRGLWDYWGQGTLVTVSS
B8: C010100688 (bispecific antibody)
chain: EVQLVESGGGLVQPGGSLRLSCAASGSIFSINAMGWYRQAPGKQRELVAAISSGGSTYYADSVKGRFTISRDNSKNTVYLQMNSLRPEDTAVYYCNAAVDASRGLPYELYYYWGQGTLVTVSSGGGGSGGGGSGGGGSGGGGSGGGGSGGGGSGGGGSEVQLVESGGGLVQPGGSLRLSCAASGSTFIINVVRWYRRAPGKQRELVATISSGGNANYVDSVRGRFTISRDNSKNTVYLQMNSLRPEDTAVYYCNVPTTHYGGVYYGPYWGQGTLVTVSS
B9: C010100280 (VHH)
VHH: EVQLVESGGGLVQPGGSLRLSCAASGFAFSAAYMSWVRQAPGKGLEWVSSISDDGSKTYYADSVKGRFTISRDNSKNTVYLQMNSLRPEDTAVYYCNTGYGATTTRPGRYWGQGTLVTVSS
B10: C010100700 (bispecific antibody)
chain: EVQLVESGGGLVQPGGSLRLSCAASGRTFSSYAMGWFRQAPGKEREFVAAISWSGGSTYYADSVKGRFTISRDNSKNTVYLQMNSLRPEDTAVYYCTAALAVYGPSRYRYGPVGEYQYWGQGTLVTVSSGGGGSGGGGSGGGGSGGGGSGGGGSGGGGSGGGGSEVQLVESGGGSVQPGGSLRLSCAASGSTFSRYSMNWYRQAPGKQREFVAGISVGRITNYAVSVRGRFTISRDNSEGTGYLQMNSLRPEDTAVYYCNAGGLQGYWGLGTLVTVSSGGGGSGGGGSGGGGSGGGGSGGGGSGGGGSGGGGSEVQLVESGGGLVQPGGSLRLSCAASGSTFIINVVRWYRRAPGKQRELVATISSGGNANYVDSVRGRFTISRDNSKNTVYLQMNSLRPEDTAVYYCNVPTTHYGGVYYGPYWGQGTLVTVSS
B11: C010100726 (bispecific antibody)
chain: EVQLVESGGGLVQPGGSLRLSCAASGRTFSSYAMGWFRQAPGKEREFVAAISWSGGSTYYADSVKGRFTISRDNSKNTVYLQMNSLRPEDTAVYYCTAALAVYGPSRYRYGPVGEYQYWGQGTLVTVSSGGGGSGGGGSGGGGSGGGGSGGGGSGGGGSGGGGSEVQLVESGGGLVQPGGSLRLSCAASGSTFSRYSMNWYRQAPGKQREFVAGISVGRITNYAVSVKGRFTISRDNSKNTVYLQMNSLRPEDTAVYYCNAGGLQGYWGQGTLVTVSS
B12: C010100727 (bispecific antibody)
chain: B11 chain with V242G
B13: C010100170 (VHH)
VHH: EVQLVESGGGLVQPGGSLRLSCAASGSIFSINAMGWYRQAPGKQRELVAAISSGGSTYYADSVKGRFTISRDNSKNTVYLQMNSLRPEDTAVYYCNAAVDASRGLPYELYYYWGQGTLVTVSS
B14: C0101PMP080A01 (VHH)
VHH: B1 VHH
B15: C0101PMP059F06 (VHH)
VHH: EVQLVESEGGTVEPGESLRLACAAPGPGIRTNFMAWYRQAPEKEREMVASISRDGSTHYADSVKGRFTISSDNATSTFYLQMNSLQVEDTAVYYCATDPHILHNDRAGAFLVEDYDHWGQGTQVTVSS
notes: Profile 2 Nanobody
B16: C0101PMP520C04 (VHH)
VHH: DVQLVESGGGLVQPGGSLRLSCAASGRTFSSYAMGWFRQAPGKEREFVAAISWSGGSTYYSDSVKGRFTISRDNSKNTVYLQMNSLRPEDTAVYYCTAARGGVAGTDGPLGDYNYWGQGTLVTVSS
notes: Profile 2 Nanobody
B17: C0101PMP525C04 (VHH)
VHH: DVQLVESGGGLVQPGGSLRLSCAGSGSIFSGNAMGWYRQAPGKQRELVAAITSGGVTNYADSVKGRFTISRDNSKNTVYLQMNSLRPEDTAVYYCAADIRYPTGLVGDYWGQGTLVTVSS
notes: Profile 2 Nanobody
B18: C0101PMP513C04 (VHH)
VHH: DVQLVESGGGLVQPGGSLRLSCAASGRTFSRYVMGWFRQAPGKEREFVAAINWSSGSTYYADSVKGRFTISRDNSKNTVYLQMNSLRPEDTAVYYCAADRRVYYDTYPNLRGYDYWGQGTLVTVSS

molecular target: T1, activated human MMP13 (human, UniProt P45452 104-471); experiment: cell-based or functional assay

potency, human fluorogenic peptide assay | Binder
3.92 nM | B1
0.484 nM | B2
0.828 nM | B3
1.57 nM | B4
0.488 nM | B5
1.91 nM | B6
0.107 nM | B7
0.927 nM | B8
1.01 nM | B9
0.0318 nM | B10
0.0671 nM | B11
0.134 nM | B12
0.608 nM | B13

molecular target: bovine MMP13 (bovine, UniProt O77656 104-471); experiment: cell-based or functional assay

IC50, bovine fluorogenic peptide assay | Binder
6.4 nM | B14
108 nM | B15
27.9 nM | B16
108 nM | B17
48.7 nM | B18

molecular target: cynomolgus MMP13 (cynomolgus, UniProt A0A2K5U988 104-471); experiment: cell-based or functional assay

IC50, cyno fluorogenic peptide assay | Binder
2.9 nM | B14
48.5 nM | B15
32.5 nM | B16
32.5 nM | B17
8 nM | B18

molecular target: activated dog MMP13 (dog, UniProt P45452 104-471 (human entry)); experiment: cell-based or functional assay

IC50, dog fluorogenic peptide assay | Binder
6 nM | B14
82.6 nM | B15
10.5 nM | B16
90.8 nM | B17
35.2 nM | B18

molecular target: T1, activated human MMP13; experiment: cell-based or functional assay; remark: another data set of the same source

IC50, human fluorogenic collagen assay | IC50, human fluorogenic peptide assay | Binder
10.8 nM | 5.2 nM | B14
140 nM | 56.3 nM | B15
31.5 nM | 13.7 nM | B16
90.5 nM | 58 nM | B17
18.1 nM | 7.7 nM | B18

molecular target: activated rat MMP13 (rat, UniProt P23097 99-466); experiment: cell-based or functional assay

IC50, rat fluorogenic peptide assay | Binder
4.2 nM | B14
38.9 nM | B15
5.6 nM | B16
157 nM | B17
16.2 nM | B18

molecular target: T2, activated MMP13 (species not stated) (Homo sapiens (Human), UniProt P45452 104-471, Biotinylated in the TIMP-2 competition ELISA (sites not given). Activated form: pro-peptide removed.); experiment: TIMP-2 competition ELISA; Nanobody pre-incubated with 1.26 nM activated MMP13-biotin, binding to captured TIMP-2
T2 construct: campaign 4 ELISA; Probably human

IC50 | Binder
51.8 nM | B15
8 nM | B16
36.2 nM | B17
